This is an account of results in the supplement of paper PMC9112550, “Optimization of the antimicrobial peptide Bac7 by deep mutational scanning” (BMC Biology, 2022).
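Also: peptides expressed intracellularly from a pBAD plasmid library in pooled LB shake-flask culture, induced with 0.3% L-arabinose, DNA abundance read by NGS, three biological replicates, DESeq2 with apeglm shrinkage.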

This series deals with Escherichia coli TOP10. The experiment in a line: shrunken log2 fold change of peptide-encoding DNA abundance (4.5 h post-induction vs induction); higher = less antimicrobial activity (less host growth inhibition). Conditions: time post-induction: 4.5 h; library: site-saturation at positions 5, 18, 19, 20.
For the sequence RRIRQRPPRLPRPRPRPEQCPRP, the “shrunken log2 fold change” value was -0.0442. As for RRIRYRPPRLPRPRPRPDIAPRP, the “shrunken log2 fold change” value is -0.0285.

RRIRSRPPRLPRPRPRPVHNPRP: the “shrunken log2 fold change” value is 0.0673.

With RRIRWRPPRLPRPRPRPRMNPRP, the “shrunken log2 fold change” value is -0.111. Under RRIRWRPPRLPRPRPRPSLDPRP stands -0.00135; under RRIRIRPPRLPRPRPRPSYWPRP, -0.781; under RRIRSRPPRLPRPRPRPNNRPRP, -0.475. Take RRIRARPPRLPRPRPRPDWEPRP: the “shrunken log2 fold change” value was 0.334. Under RRIRGRPPRLPRPRPRPKTTPRP stands 0.521; under RRIRTRPPRLPRPRPRPVMTPRP, -0.14. Under RRIRERPPRLPRPRPRPRPNPRP stands 0.451; under RRIRDRPPRLPRPRPRPQLSPRP, 0.103. RRIRTRPPRLPRPRPRPFQNPRP: the “shrunken log2 fold change” value stood at 0.0326. To RRIRMRPPRLPRPRPRPQSWPRP belongs 0.141; to RRIRDRPPRLPRPRPRPRQFPRP, 0.0037. On to RRIRVRPPRLPRPRPRPGNEPRP, for which the “shrunken log2 fold change” value is -0.203. To RRIRARPPRLPRPRPRPMTLPRP belongs 0.151; to RRIRGRPPRLPRPRPRPCDTPRP, 0.13; to RRIRPRPPRLPRPRPRPPTCPRP, 0.051. To RRIRRRPPRLPRPRPRPALHPRP belongs 0.651; to RRIRRRPPRLPRPRPRPPRWPRP, 0.986; to RRIRLRPPRLPRPRPRPPTNPRP, 0.177.

On to RRIRFRPPRLPRPRPRPEEMPRP, for which the “shrunken log2 fold change” value was -0.00182.

Take RRIRCRPPRLPRPRPRPQFEPRP: the “shrunken log2 fold change” value was determined as 0.000801. Take RRIRPRPPRLPRPRPRPYFYPRP: the “shrunken log2 fold change” value was -0.787. Regarding RRIRNRPPRLPRPRPRPTIMPRP, the “shrunken log2 fold change” value was -0.0883. To RRIRWRPPRLPRPRPRPHRIPRP belongs -0.225; to RRIRKRPPRLPRPRPRPSTAPRP, -0.177; to RRIRYRPPRLPRPRPRPMKRPRP, -0.0321. Take RRIRYRPPRLPRPRPRPIWMPRP: the “shrunken log2 fold change” value was -0.0399. To RRIRERPPRLPRPRPRPCSAPRP belongs -0.0881; to RRIRARPPRLPRPRPRPDRYPRP, -0.474. Take RRIRVRPPRLPRPRPRPRISPRP: the “shrunken log2 fold change” value was -0.187.

Regarding RRIRARPPRLPRPRPRPYEDPRP, the “shrunken log2 fold change” value was -0.117.

As to RRIRFRPPRLPRPRPRPRLEPRP, the “shrunken log2 fold change” value was 0.392.

Consider RRIRSRPPRLPRPRPRPTHLPRP, for which the “shrunken log2 fold change” value amounted to 0.135. To RRIRQRPPRLPRPRPRPPVKPRP belongs 0.0851. To RRIRTRPPRLPRPRPRPQYWPRP belongs -0.163.

For RRIRHRPPRLPRPRPRPSPFPRP, the “shrunken log2 fold change” value is -0.199. RRIRRRPPRLPRPRPRPKFNPRP: the “shrunken log2 fold change” value worked out at 0.00967. Under RRIRNRPPRLPRPRPRPDVFPRP stands -0.199; under RRIRCRPPRLPRPRPRPEYNPRP, -0.243. RRIRNRPPRLPRPRPRPCNNPRP: the “shrunken log2 fold change” value is -0.0122. To RRIRFRPPRLPRPRPRPFVWPRP belongs -0.0869. On to RRIRRRPPRLPRPRPRPREWPRP, for which the “shrunken log2 fold change” value was 1.03.

Consider RRIRCRPPRLPRPRPRPLTKPRP, for which the “shrunken log2 fold change” value was determined as 0.291. On to RRIRKRPPRLPRPRPRPFWEPRP, for which the “shrunken log2 fold change” value stood at 0.341. For the sequence RRIRVRPPRLPRPRPRPKQPPRP, the “shrunken log2 fold change” value was 0.11. RRIRHRPPRLPRPRPRPYWMPRP: the “shrunken log2 fold change” value was -1.63.

Take RRIRQRPPRLPRPRPRPWRNPRP: the “shrunken log2 fold change” value was -0.00208. As to RRIRERPPRLPRPRPRPPERPRP, the “shrunken log2 fold change” value amounted to 0.366. In the case of RRIRLRPPRLPRPRPRPGDYPRP, the “shrunken log2 fold change” value was -0.0616.

RRIRFRPPRLPRPRPRPTWSPRP: the “shrunken log2 fold change” value was 0.188. Consider RRIRCRPPRLPRPRPRPKKRPRP, for which the “shrunken log2 fold change” value amounted to 0.156.

As to RRIRARPPRLPRPRPRPYYAPRP, the “shrunken log2 fold change” value was -0.501. Under RRIRSRPPRLPRPRPRPSCFPRP stands -0.197; under RRIRNRPPRLPRPRPRPGNYPRP, 0.224. To RRIRVRPPRLPRPRPRPDEMPRP belongs 0.0261. Under RRIRARPPRLPRPRPRPQQEPRP stands -0.0196; under RRIRFRPPRLPRPRPRPGQEPRP, -0.0664; under RRIRLRPPRLPRPRPRPFWLPRP, 0.0573.

For RRIRGRPPRLPRPRPRPKYCPRP, the “shrunken log2 fold change” value was 0.203. To RRIRNRPPRLPRPRPRPDKMPRP belongs 0.0206. To RRIRGRPPRLPRPRPRPQLPPRP belongs 0.183; to RRIRWRPPRLPRPRPRPLKGPRP, 0.0212; to RRIRKRPPRLPRPRPRPYKWPRP, 0.000411. Under RRIRYRPPRLPRPRPRPHEIPRP stands -0.194; under RRIRIRPPRLPRPRPRPDMWPRP, -0.271. For RRIRKRPPRLPRPRPRPASIPRP, the “shrunken log2 fold change” value worked out at 0.0215. Under RRIRCRPPRLPRPRPRPCDSPRP stands -0.042. As to RRIRERPPRLPRPRPRPVWGPRP, the “shrunken log2 fold change” value amounted to 0.259. On to RRIRQRPPRLPRPRPRPANPPRP, for which the “shrunken log2 fold change” value was -0.234. Under RRIRSRPPRLPRPRPRPQCDPRP stands -0.193. To RRIRERPPRLPRPRPRPNPYPRP belongs -0.304; to RRIRMRPPRLPRPRPRPPNAPRP, 1.11; to RRIRERPPRLPRPRPRPNASPRP, -0.0996.

On to RRIRARPPRLPRPRPRPLGYPRP, for which the “shrunken log2 fold change” value amounted to 0.223. To RRIRIRPPRLPRPRPRPFWNPRP belongs -0.277. As to RRIRARPPRLPRPRPRPKLSPRP, the “shrunken log2 fold change” value turned out to be 0.138. For RRIRQRPPRLPRPRPRPCDVPRP, the “shrunken log2 fold change” value is -0.15. Take RRIRIRPPRLPRPRPRPLEDPRP: the “shrunken log2 fold change” value was -0.0413. Take RRIRCRPPRLPRPRPRPQRGPRP: the “shrunken log2 fold change” value stood at 0.337. In the case of RRIRLRPPRLPRPRPRPIMLPRP, the “shrunken log2 fold change” value is -1.12. Under RRIRWRPPRLPRPRPRPNCDPRP stands 0.14; under RRIRRRPPRLPRPRPRPDDMPRP, -0.039. Under RRIRCRPPRLPRPRPRPFSLPRP stands -0.239; under RRIRMRPPRLPRPRPRPVFEPRP, 0.59; under RRIRNRPPRLPRPRPRPIIFPRP, -1.03. On to RRIRIRPPRLPRPRPRPSRWPRP, for which the “shrunken log2 fold change” value was found to be 0.324. Under RRIRARPPRLPRPRPRPDVVPRP stands -0.101; under RRIRWRPPRLPRPRPRPSPSPRP, 0.375. In the case of RRIRQRPPRLPRPRPRPMWTPRP, the “shrunken log2 fold change” value turned out to be 0.158. Under RRIRFRPPRLPRPRPRPQQVPRP stands 0.0179. Under RRIRFRPPRLPRPRPRPPCRPRP stands 0.172; under RRIRGRPPRLPRPRPRPHYVPRP, -0.0585; under RRIRGRPPRLPRPRPRPLVRPRP, 0.577. To RRIRIRPPRLPRPRPRPIWAPRP belongs -0.234; to RRIRRRPPRLPRPRPRPCMAPRP, 0.61. Turning to RRIRSRPPRLPRPRPRPSLMPRP, the “shrunken log2 fold change” value is -0.201. To RRIRFRPPRLPRPRPRPDNTPRP belongs -0.491; to RRIRCRPPRLPRPRPRPMGAPRP, 0.144; to RRIRVRPPRLPRPRPRPASMPRP, 0.0106. Under RRIRPRPPRLPRPRPRPDQYPRP stands -0.114; under RRIRDRPPRLPRPRPRPSATPRP, 0.515; under RRIRIRPPRLPRPRPRPTWNPRP, 0.409. To RRIRHRPPRLPRPRPRPELIPRP belongs -0.0454; to RRIRIRPPRLPRPRPRPWCRPRP, -0.521; to RRIRLRPPRLPRPRPRPDASPRP, 0.101. With RRIRIRPPRLPRPRPRPHNYPRP, the “shrunken log2 fold change” value was -0.376. Under RRIRLRPPRLPRPRPRPWASPRP stands -0.0355.

As for RRIRPRPPRLPRPRPRPRSEPRP, the “shrunken log2 fold change” value turned out to be 0.564. To RRIRWRPPRLPRPRPRPQKMPRP belongs -0.0924. RRIRVRPPRLPRPRPRPKYKPRP: the “shrunken log2 fold change” value was -0.574. To RRIRRRPPRLPRPRPRPACGPRP belongs 0.429; to RRIRMRPPRLPRPRPRPDWGPRP, 0.0473; to RRIRIRPPRLPRPRPRPWQTPRP, 0.0238. For the sequence RRIRYRPPRLPRPRPRPYFTPRP, the “shrunken log2 fold change” value is -0.981.

Turning to RRIRARPPRLPRPRPRPVMTPRP, the “shrunken log2 fold change” value was -0.00766. RRIRRRPPRLPRPRPRPHCHPRP: the “shrunken log2 fold change” value is -0.134. With RRIRARPPRLPRPRPRPKGYPRP, the “shrunken log2 fold change” value amounted to 0.049.

As to RRIRYRPPRLPRPRPRPKDHPRP, the “shrunken log2 fold change” value was -0.487.

On to RRIRMRPPRLPRPRPRPTREPRP, for which the “shrunken log2 fold change” value was 0.947. Turning to RRIRNRPPRLPRPRPRPRMDPRP, the “shrunken log2 fold change” value is -0.104. With RRIRNRPPRLPRPRPRPRITPRP, the “shrunken log2 fold change” value was found to be 0.0468. Under RRIRIRPPRLPRPRPRPACIPRP stands -0.69.
